Test results from publication PMC7595112, “Ketohexokinase-A acts as a nuclear protein kinase that mediates fructose-induced metastasis in breast cancer” (Nature Communications, 2020).

T1: FLAG-LRRC59 purified from HEK293T cells (human, UniProt Q96AG4 1-307)
T1 construct: leucine-rich repeat-containing protein 59, human cDNA NM_018509 cloned by RT-PCR into pcDNA-FLAG
T1 sequence (looked up): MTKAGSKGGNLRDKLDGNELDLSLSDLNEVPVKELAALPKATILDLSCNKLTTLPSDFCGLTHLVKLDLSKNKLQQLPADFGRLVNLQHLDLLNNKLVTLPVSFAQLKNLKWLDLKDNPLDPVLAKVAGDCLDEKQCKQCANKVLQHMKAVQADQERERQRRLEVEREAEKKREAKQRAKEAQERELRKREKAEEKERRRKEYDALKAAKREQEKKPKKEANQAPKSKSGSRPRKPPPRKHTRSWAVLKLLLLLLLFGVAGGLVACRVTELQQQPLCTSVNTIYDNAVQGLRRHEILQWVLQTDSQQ


Experiments:
SLUG (SNAIL2) = SLUG (SNAIL2) (UniProt O43623); test: co-immunoprecipitation, immunoblot; conditions: reference: wild-type YWHAH; sites S25
[1] = biological target: T1, FLAG-LRRC59 purified from HEK293T cells; test: pull-down; purified His-KHK-A and FLAG-LRRC59 incubated 1 h at 4 °C with 1 mM fructose in 25 mM HEPES pH 7.5, 150 mM KCl, 12.5 mM MgCl2, 0.5 mM DTT, 0.1% NP-40, 10% glycerol; His-KHK-A pulled down with nickel-NTA, anti-Flag blot; conditions: both partners purified

Molecule | binding against the reference (SLUG (SNAIL2)) | binding result [1]
YWHAH (14-3-3η) (from UniProt Q04917) YWHAH S25A | lost | –
His(6)-KHK-A purified from HEK293T cells (enzyme, human, ketohexokinase isoform A (KHK-A), human cDNA NM_000221 cloned by RT-PCR into pcDNA-His(6); also called His-KHK-A; purified KHK-A; source: HEK293T, purified (nickel-NTA beads, eluted with 250 mM imidazole)) MEEKQILCVGLVVLDVISLVDKYPKEDSEIRCLSQRWQRGGNASNSCTVLSLLGAPCAFMGSMAPGHVADFVLDDLRRYSVDLRYTVFQTTGSVPIATVIINEASGSRTILYYDRSLPDVSATDFEKVDLTQFKWIHIEGRNASEQVKMLQRIDAHNTRQPPEQKIRVSVEVEKPREELFQLFGYGDVVFVSKDVAKHLGFQSAEEALRGLYGRVRKGAVLVCAWAEEGADALGPDGKLLHSDAFPPPRVVDTLGAGDTFNASVIFSLSQGRSVQEALRFGCQVAGKKCGLQGFDGIV | – | binds
